Measurements published in publication PMC9605926, “Safety of [^177Lu]Lu-NeoB treatment: a preclinical study characterizing absorbed dose and acute, early, and late organ toxicity” (European Journal of Nuclear Medicine and Molecular Imaging, 2022).

Test system: healthy Balb/c mice
Experiment: Toxicity study, histopathology (5-point grade); 3 i.v. injections at 7-day interval; control group 2 = 3× 1200 pmol [175Lu]Lu-NeoB; treatment groups 1/2/3 = 3× 40 MBq/400 pmol, 80 MBq/800 pmol, 120 MBq/1200 pmol [177Lu]Lu-NeoB
Format: in vivo, mouse
Experimental: Five different experimental groups (10 male and 10 female healthy animals per group; n = 100) were included in the radiotoxicity study and treated as follows: control group 1: 3 × vehicle (PBS + kolliphor HS 15 (1 mg/mL)); control group 2: 3 × 1200 pmol [^175Lu]Lu-NeoB; treatment group 1: 3 × 40 MBq/400 pmol [^177Lu]Lu-NeoB; treatment group 2: 3 × 80 MBq/800 pmol [^177Lu]Lu-NeoB; and treatment group 3: 3 × 120 MBq/1200 pmol [^177Lu]Lu-NeoB.
Animals received 3 injections with an interval of 7 days between each injection.
At 5, 19, and 43 weeks after the first injection, 3–4 male and 3–4 female animals of each group were sacrificed by isoflurane overdose after a blood sample was taken by retro-orbital puncture. Hereafter, the axillary lymph nodes, mesenteric lymph nodes, skin, mammary fat pad, sternum, pancreas, adrenal glands, kidneys, spleen, liver, gallbladder, stomach, duodenum, jejunum, ileum, caecum, colon, rectum, testes (M), epididymis (M), seminal vesicles (M), prostate gland (M), ovaries (F), oviducts (F), uterus-cervix (F), vagina (F), bladder, ureters, sciatic nerve, skeletal muscle, femur, lungs, trachea, esophagus, thymus, thyroid gland, aorta, heart, brain, pituitary gland, eyes, harderian glands, tongue, spinal column, and the tail were collected and analyzed macroscopically. All organs and tissues were formalin fixed (4% buffered formaldehyde) and shipped to the European Research Biology Centre (ERBC, Pomezia, Rome, Italy) where histological sampling, embedding, sectioning (5 µm thick), and hematoxylin–eosin staining were performed according to standard guidelines. All organs and tissues were analyzed microscopically by an experienced pathologist. A 5-point grading scale was used: 1: minimal change, 2: mild change, 3: moderate change, 4: marked change, 5: severe change.

[1] = male wk 5, treatment group 3, grade 1
[2] = male wk 5, treatment group 3, grade 2
[3] = male wk 19, treatment group 1, grade 1
[4] = male wk 19, treatment group 1, grade 2
[5] = male wk 19, treatment group 2, grade 1
[6] = male wk 19, treatment group 2, grade 2
[7] = male wk 19, treatment group 3, grade 1
[8] = male wk 19, treatment group 3, grade 2
[9] = male wk 43, treatment group 1, grade 1
[10] = male wk 43, treatment group 1, grade 2
[11] = male wk 43, treatment group 2, grade 1
[12] = male wk 43, treatment group 2, grade 2
[13] = male wk 43, treatment group 3, grade 1
[14] = male wk 43, treatment group 3, grade 2
[15] = male wk 43, treatment group 3, grade 3
[16] = week 19, male treatment group 2

CC(C)CC(CC(C)C)NC(=O)[C@H](Cc1cnc[nH]1)NC(=O)CNC(=O)[C@@H](NC(=O)[C@H](C)NC(=O)[C@H](Cc1c[nH]c2ccccc12)NC(=O)[C@H](CCC(N)=O)NC(=O)[C@@H](Cc1ccccc1)NC(=O)COCC(=O)Nc1ccc(CNC(=O)CN2CCN(CC(=O)O)CCN(CC(=O)O)CCN(CC(=O)O)CC2)cc1)C(C)C [[^177Lu]Lu-NeoB, metal not drawn]
Thyroid gland ectopic thymus, incidence (male wk 5, treatment group 1, grade 3): 1/3
Testes germ cell depletion, incidence (male wk 5, treatment group 2, grade 1): 1/3
Thyroid gland ectopic thymus, incidence (male wk 5, treatment group 2, grade 3): 1/3
Prostate gland inflammatory cell foci, incidence [1]: 2/3
Testes germ cell depletion, incidence [1]: 1/3
Urinary bladder inflammatory cell foci, incidence [1]: 3/3
Urinary bladder urothelium vacuolation, incidence [1]: 2/3
Heart inflammatory cell foci, incidence [2]: 1/3
Pancreas mineralization, incidence [2]: 1/3
Urinary bladder mineralization, incidence [2]: 1/3
Urinary bladder urothelium vacuolation, incidence [2]: 1/3
Adrenal glands subcapsular cell hyperplasia, incidence [3]: 1/3
Testes germ cell depletion, incidence [3]: 2/3
Adrenal glands subcapsular cell hyperplasia, incidence [4]: 1/3
Spleen extramedullary haematopoiesis, incidence [4]: 1/3
Thyroid gland ectopic thymus, incidence (male wk 19, treatment group 1, grade 3): 1/3
Adrenal glands subcapsular cell hyperplasia, incidence [5]: 1/3
Urinary bladder inflammatory cell foci, incidence [5]: 2/3
Urinary bladder urothelium vacuolation, incidence [5]: 3/3
Adrenal glands subcapsular cell hyperplasia, incidence [6]: 1/3
Pancreas inflammatory cell foci, incidence [6]: 2/3
Kidneys hydronephrosis, incidence (male wk 19, treatment group 2, grade 3): 1/3
Kidneys hydronephrosis, incidence (male wk 19, treatment group 2, grade 4): 2/3
Adrenal glands subcapsular cell hyperplasia, incidence [7]: 2/3
Urinary bladder urothelium vacuolation, incidence [7]: 1/3
Adrenal glands subcapsular cell hyperplasia, incidence [8]: 1/3
Spleen extramedullary haematopoiesis, incidence [8]: 1/3
Thyroid gland ectopic thymus, incidence (male wk 19, treatment group 3, grade 3): 1/3
Kidneys hydronephrosis, incidence (male wk 19, treatment group 3, grade 4): 2/3
Adrenal glands subcapsular cell hyperplasia, incidence [9]: 2/3
Kidneys inflammatory cell foci, incidence [9]: 1/3
Kidneys nephropathy, incidence [9]: 2/3
Pancreas acinar cell degeneration, incidence [9]: 1/3
Pancreas inflammatory cell foci, incidence [9]: 1/3
Skin inflammatory cell foci, incidence [9]: 1/3
Skin scab formulation, incidence [9]: 1/3
Urinary bladder inflammatory cell foci, incidence [9]: 1/3
Adrenal glands subcapsular cell hyperplasia, incidence [10]: 1/3
Pancreas inflammatory cell foci, incidence [10]: 2/3
Adrenal glands subcapsular cell hyperplasia, incidence [11]: 2/4
Kidneys nephropathy, incidence [11]: 1/4
Urinary bladder inflammatory cell foci, incidence [11]: 2/4
Urinary bladder urothelium vacuolation, incidence [11]: 1/4
Adrenal glands subcapsular cell hyperplasia, incidence [12]: 1/4
Kidneys nephropathy, incidence [12]: 1/4
Pancreas inflammatory cell foci, incidence [12]: 2/4
Urinary bladder inflammatory cell foci, incidence [12]: 1/4
Adrenal glands subcapsular cell hyperplasia, incidence (male wk 43, treatment group 2, grade 3): 1/4
Kidneys hydronephrosis, incidence (male wk 43, treatment group 2, grade 4): 2/4
Adrenal glands subcapsular cell hyperplasia, incidence [13]: 3/4
Kidneys nephropathy, incidence [13]: 1/4
Liver inflammatory cell foci, incidence [13]: 2/4
Pancreas inflammatory cell foci, incidence [13]: 2/4
Skin inflammatory cell foci, incidence [13]: 1/4
Testes germ cell depletion, incidence [13]: 1/4
Adrenal glands subcapsular cell hyperplasia, incidence [14]: 1/4
Kidneys cyst/s, incidence [14]: 1/4
Epididymides spermatic granuloma, incidence [15]: 1/4
Ureter(s) dilation, incidence [15]: 1/4
Kidneys hydronephrosis, incidence (male wk 43, treatment group 3, grade 4): 3/4
Cytoplasmic vacuolation of urothelial cells, incidence (week 5, female treatment group 2, minimal or mild): 3/3
Cytoplasmic vacuolation of urothelial cells, incidence (week 5, female treatment group 3, minimal or mild): 3/3
Cytoplasmic vacuolation of urothelial cells, incidence (week 5, male treatment group 3, minimal or mild): 3/3
Cytoplasmic vacuolation of urothelial cells, incidence (week 19, all female treatment groups): 7/9
Hydronephrosis, incidence (week 19, female treatment group 1): 1/3
Hydronephrosis, incidence (week 19, female treatment group 3): 3/3
Cytoplasmic vacuolation of urothelial cells, incidence [16]: 3/3
Hydronephrosis, incidence [16]: 3/3
Hydronephrosis, incidence (week 19, male treatment group 3): 2/3
Marked ovarian atrophy, incidence (week 43, all treated females): 10/11
Marked or severe hydronephrosis, incidence (week 43, female treatment group 2): 1/4
Marked or severe hydronephrosis, incidence (week 43, female treatment group 3): 2/4
Marked or severe hydronephrosis, incidence (week 43, male treatment group 2): 2/4
Marked or severe hydronephrosis, incidence (week 43, male treatment group 3): 3/4
